Assay results published in the supplement of paper PMC12783771.
± gives the standard deviation of the averaged measurements.

B1: library; numbered along this chain (parent)
chain: MNIQIGELAKRTACPVVTIRFYEQEGLLPPPGRSRGNFRLYGEEHVERLQFIRHCRSLDMPLSDVRTLLSYRKRPDQDCGEVNMLLDEHIRQVESRIGALLELKHHLVELREACSGARPAQSCGILQGLSDCVCDTRGTTAHPSD

Columns and labels:
[1] = variants of: B1; test: sfGFP reporter fluorescence (15 h) (µM FITC); higher = higher leak; conditions: library round: Round 0; ligand: none
Method in brief: (§1)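 Values are endpoint sfGFP fluorescence given as µM FITC equivalents. Fluorescence was read at 485/528 nm on a Synergy Neo2, and FITC standard curves were prepared in 50 mM sodium borate pH 8.5. Reactions of 1 μL combined BL21 Star (DE3) PANOx-SP extract, pPbrR-sfGFP reporter, 30 μg/mL GamS and linear PbrR templates (PCR-made, Echo-normalized to 5 nM), with 1 µM lead chloride, 30 µM zinc acetate or no metal, for 15 hr at 30 °C.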

[2] = variants of: B1; test: sfGFP reporter fluorescence (15 h) (µM FITC); higher = stronger transcriptional activation; conditions: library round: Round 0
Method in brief: as §1

Variant	sfGFP reporter fluorescence [1]	sfGFP reporter fluorescence ([2]; ligand: 1 µM Pb)	sfGFP reporter fluorescence ([2]; ligand: 30 µM Zn)
I19A	0.0577 ± 0.0013	0.0592 ± 0.00078	0.08063 ± 0.00052
R66A	0.0627 ± 0.0015	0.0751 ± 0.0047	0.616 ± 0.13
P61N K104V L107C G128I	0.289 ± 0.0057	1.306 ± 0.0026	2.66 ± 0.067
V108F	0.0561 ± 0.001	0.0685 ± 0.001	0.436 ± 0.028
V108A	0.06304 ± 0.00052	0.0729 ± 0.0042	0.408 ± 0.11
V108P	0.0572 ± 0.0015	0.06011 ± 0.00052	0.0621 ± 0.0018
L68F	0.07935 ± 0.00078	0.166 ± 0.0029	1.42 ± 0.11
L68A	0.0623 ± 0.001	0.0619 ± 0.0047	0.156 ± 0.0049
L68I	0.0599 ± 0.0013	0.059 ± 0.0021	0.214 ± 0.047
C55H	0.0585 ± 0.00078	0.06139 ± 0.00026	0.0574 ± 0.00078
E109P	0.0662 ± 0.0023	0.155 ± 0.011	1.45 ± 0.11
E109Y	0.06029 ± 0.00026	0.0832 ± 0.0031	1.46 ± 0.15
E109M	0.061 ± 0.0013	0.0806 ± 0.0057	0.957 ± 0.061
M60L D64K K104V G128M	3.37 ± 0.19	4.36 ± 0.31	3.8 ± 0.24
I97Y	0.0603 ± 0.0034	0.0825 ± 0.0026	0.721 ± 0.031
I97W	0.0585 ± 0.006	0.0616 ± 0.0015	0.176 ± 0.0073
I97Q	0.057 ± 0.0029	0.057 ± 0.0034	0.287 ± 0.0088
I97N	0.0566 ± 0.0029	0.0603 ± 0.0039	0.325 ± 0.0065
R96A	0.0564	0.07495 ± 0.00026	0.294 ± 0.0083
K104P	0.0509 ± 0.0073	0.0544 ± 0.0054	0.08191 ± 0.00078
K104D	0.0592 ± 0.006	0.138 ± 0.046	1.06 ± 0.18
K104W	0.0574 ± 0.0096	0.0795 ± 0.013	0.607 ± 0.096

Variant	sfGFP reporter fluorescence [1]	sfGFP reporter fluorescence ([2]; ligand: 1 µM Pb)	sfGFP reporter fluorescence ([2]; ligand: 30 µM Zn)
L27S	0.0623 ± 0.00052	0.0621 ± 0.00078	0.0647 ± 0.0029
L27A	0.0632 ± 0.00078	0.05827 ± 0.00052	0.0733
L27Y	0.066	0.0792 ± 0.0021	0.254 ± 0.011
L27Q	0.06432 ± 0.00026	0.0618 ± 0.0013	0.06285 ± 0.00026
H89K	0.0601 ± 0.0026	0.0599 ± 0.0013	0.161 ± 0.0036
H89Q	0.0645 ± 0.0047	0.108 ± 0.0029	1.3 ± 0.08
H89A	0.05992 ± 0.00026	0.05699 ± 0.00026	0.06725 ± 0.00026
H89P	0.0566 ± 0.0029	0.05498 ± 0.00052	0.0564
H89R	0.0685 ± 0.0042	0.0936 ± 0.0054	0.975 ± 0.017
H89E	0.0647 ± 0.0023	0.0795 ± 0.0031	0.139 ± 0.0023
C79W	0.0583 ± 0.0021	0.0588 ± 0.0013	0.0548 ± 0.0034
C79T	0.0575 ± 0.0031	0.0592 ± 0.0018	0.0555 ± 0.0018
C79D	0.05882 ± 0.00026	0.059 ± 0.0021	0.0564 ± 0.001
C79H	0.05919 ± 0.00026	0.0596 ± 0.00078	0.0559 ± 0.00078
C79L	0.0555 ± 0.0023	0.0553 ± 0.0021	0.05498 ± 0.00052
S95A	0.0625 ± 0.0013	0.0759 ± 0.0062	0.797 ± 0.063
L28H	0.06249 ± 0.00026	0.0625 ± 0.0013	0.0563 ± 0.0034
L28S	0.0627 ± 0.0015	0.0632 ± 0.0023	0.0715
L28P	0.06102 ± 0.00026	0.06047 ± 0.00052	0.0619 ± 0.001
L28Y	0.0621 ± 0.00078	0.0627 ± 0.0015	0.12 ± 0.0052
L28A	0.06322 ± 0.00026	0.0603 ± 0.00078	0.0695 ± 0.0013
R111Q	0.0572 ± 0.001	0.0618 ± 0.0013	0.275 ± 0.0083

Variant	sfGFP reporter fluorescence [1]	sfGFP reporter fluorescence ([2]; ligand: 1 µM Pb)	sfGFP reporter fluorescence ([2]; ligand: 30 µM Zn)
R111F	0.0581 ± 0.00078	0.06927 ± 0.00052	0.328 ± 0.019
R111M	0.05772 ± 0.00026	0.0623 ± 0.0026	0.243 ± 0.001
G36C	0.0618 ± 0.0018	0.0865 ± 0.0015	0.8609 ± 0.0015
G36F	0.0594 ± 0.001	0.0638 ± 0.0015	0.145 ± 0.0029
G36V	0.06011 ± 0.00052	0.0711 ± 0.00052	0.322 ± 0.011
R72A	0.06175 ± 0.00026	0.0687 ± 0.008	0.3731 ± 0.0026
Y22F	0.0629 ± 0.0029	0.0662 ± 0.00078	0.173 ± 0.0039
Y22L	0.0614 ± 0.00078	0.0597 ± 0.0015	0.07183 ± 0.00052
P61T	0.0865 ± 0.001	0.211 ± 0.006	1.94 ± 0.03
Q121A	0.0645 ± 0.001	0.0944 ± 0.0023	1.16 ± 0.19
Q24A	0.0559 ± 0.0029	0.05827 ± 0.00052	0.534 ± 0.052
G6L	0.0607 ± 0.00078	0.06157 ± 0.00052	0.0682 ± 0.001
G6D	0.06377 ± 0.00052	0.06047 ± 0.00052	0.0621 ± 0.00078
G6S	0.0608 ± 0.0021	0.06853 ± 0.00052	0.412 ± 0.027
V46M	0.0563 ± 0.0018	0.09 ± 0.0075	1 ± 0.1
V46N	0.0535 ± 0.0021	0.0665 ± 0.0096	0.108 ± 0.0023
V46F	0.05626 ± 0.00026	0.0814 ± 0.0015	0.66 ± 0.074
V46K	0.0599 ± 0.00078	0.0922 ± 0.0023	0.908 ± 0.097
N83I	0.0561 ± 0.0015	0.0718 ± 0.001	0.055 ± 0.001
N83H	2.73 ± 0.37	2.63 ± 0.52	3.526 ± 0.0086
L107W	0.0599 ± 0.0013	0.0638	0.118 ± 0.0013
L107F	0.0528 ± 0.0015	0.0495 ± 0.0021	0.0636 ± 0.0039

Variant	sfGFP reporter fluorescence [1]	sfGFP reporter fluorescence ([2]; ligand: 1 µM Pb)	sfGFP reporter fluorescence ([2]; ligand: 30 µM Zn)
L85G	0.0544 ± 0.0023	0.0541 ± 0.0013	0.0603 ± 0.00078
L85A	0.05864 ± 0.00052	0.0559 ± 0.0023	0.07183 ± 0.00052
G128P	0.05498 ± 0.00052	0.0568 ± 0.001	0.0535 ± 0.001
G128I	0.066 ± 0.0021	0.183 ± 0.015	1.68 ± 0.19
L110K	0.05772 ± 0.00026	0.05864 ± 0.00052	0.0792 ± 0.0021
G138A	0.0597 ± 0.001	0.0724 ± 0.0018	0.697 ± 0.17
S144A	0.0586 ± 0.0036	0.0588 ± 0.0023	0.493 ± 0.16
P61N D64K K104V	0.26 ± 0.0026	0.752 ± 0.037	2.41 ± 0.1
L126T	0.0596 ± 0.0018	0.0579 ± 0.0036	0.057 ± 0.0029
L126W	0.0586	0.0594 ± 0.0026	0.0612
L126F	0.05699 ± 0.00026	0.0583 ± 0.001	0.0586 ± 0.0021
K104V L107C G128M	0.701 ± 0.023	3.1 ± 0.15	4.118 ± 0.038
E94M	0.0581 ± 0.0018	0.0726 ± 0.0047	0.598 ± 0.031
E94F	0.0563 ± 0.0044	0.0579 ± 0.001	0.177 ± 0.006
E94H	0.0592 ± 0.0029	0.0632 ± 0.0023	0.344 ± 0.021
K104V G128M	0.179 ± 0.0031	0.808 ± 0.088	3.325 ± 0.0054
E23A	0.0608 ± 0.0015	0.05827 ± 0.00052	0.104 ± 0.0026
V16D	0.0649 ± 0.0015	0.0975 ± 0.0026	0.9703 ± 0.0039
K10A	0.05644 ± 0.00052	0.0687 ± 0.0023	0.567 ± 0.026
M60Y	0.0621 ± 0.0013	0.0662 ± 0.0013	0.12 ± 0.00078
M60T	0.0601 ± 0.001	0.0621 ± 0.00078	0.0645 ± 0.001
M60Q	0.0603 ± 0.00078	0.0588 ± 0.0018	0.0614 ± 0.0013
